The values that follow come from patent US20240254204A1 (published 2024).

Positions count from the first letter of the chain named.

Among the targets are SARS-CoV-2 Lambda (SARS-CoV-2 Lambda); Bat CoV WIV-1 (SC1r-CoV WIV-1); Bat CoV Rs2018B (SC1r-CoV Rs2018B); Bat CoV RsSHC014 (SC1r-CoV RsSHC014); SARS-COV-2 B.1.351 RBD (SARS-CoV-2 B.1.351 (Beta)); SC2r-COV RaTG13 RBD (SC2r-CoV RaTG13 (bat)).
Test [1] addresses SARS-COV-2 Omicron BA.2 RBD (SARS-CoV-2 Omicron BA.2).
For test [2], the target named is SARS-COV-2 Omicron BA.1 RBD (SARS-CoV-2 Omicron BA.1).

B1: F5 (antibody, V domains shown)
VH: QVQLQESGPGLVKPSETLSLTCTVSGGSIIGYYWSWIRQPPGKGLEWIGYIYFSANTNYNPSLKSRVTMSVDMSKKQFSLKLRSVTAADTAVYYCARGGGYLETGPLDFWGQGILVTVSS
VL: DIVMTQSPLSLPVTPGEPASISCRSSQSLMQLNGYNYLAWYLQRPGQSPQLLIYLGSTRASGVPDRFSGSGSGTDFTLKITRVEAEDVGVYYCMQGLQIPGTFGQGTRLEIK
Turning to B1, the half-maximal inhibitory concentration (IC50) (commonly the concentration needed to halve the response being measured) in the test with SARS-CoV-2 Delta turned out to be 0.034 µg/mL; with Bat CoV BANAL-236, 0.033 µg/mL; with SARS-CoV-2 Lambda, 0.014 µg/mL; with Bat CoV WIV-1 it was 0.012 µg/mL; in the test with SARS-CoV-2 Delta Plus, 0.03 µg/mL; with SARS-CoV-2 Mu, 0.024 µg/mL. Moreover, the half-inhibitory concentration (IC50) in the test with Pangolin CoV GD-1 is 0.019 µg/mL; with Bat CoV Rs2018B, 0.015 µg/mL; with Bat CoV BANAL-52, 0.027 µg/mL; in the test with Bat CoV RsSHC014, 0.012 µg/mL; with SARS-CoV-2 it was 0.03 µg/mL; with Pangolin CoV GX-, 0.025 µg/mL. The IC50 in the test with SARS-CoV-1 amounted to 0.019 µg/mL; in the test with Bat CoV LYRa11, 0.01 µg/mL.

B2: E7 (antibody, V domains shown)
VH: QVQLQESGPGLVKPSETLSLTCTVSGGFIGPHYWSWVRQPPGKGLEWIGYIYISGSTNYNPSLKSRLTISVDMSKSQFSLTLSSATAADTAVYYCARGGGYLETGPFEYWGQGTLVTVSS
VL: B1 VL with M30L, L32N, R44K, G56S, T81S, G96S
As for B2, the IC50 in the test with SARS-CoV-2 Delta amounted to 0.097 µg/mL; with SARS-CoV-2 Lambda, 0.032 µg/mL; with Bat CoV WIV-1, 0.03 µg/mL; with Pangolin CoV GD-1 it was 0.073 µg/mL; with Bat CoV Rs2018B, 0.032 µg/mL; in the test with Bat CoV RsSHC014 it was 0.022 µg/mL. Besides, the figures for the IC50 with Pangolin CoV GX- and with Bat CoV LYRa11 were 0.039 µg/mL and 0.021 µg/mL, respectively.

B3: Antibody 11 (SS6V11-E7) (antibody, V domains shown)
VH: B2 VH
VL: B1 VL with M30L, L32N, R44K, G56S, T81S, G96S
As to B3, the IC50 is 0.044 µg/mL with SARS-COV-2 B.1.351 RBD and 0.222 µg/mL in [1].

B4: Antibody 20 (SS6V20-F5) (antibody, V domains shown)
VH: B1 VH
VL: B1 VL
B4: the concentration for half-maximal inhibition (IC50) was 0.072 µg/mL in [2], 0.015 µg/mL with SC2r-COV RaTG13 RBD and 0.246 µg/mL in test [1].

B5: F1 (antibody, V domains shown)
VH: QVQLQESGPGLVKPSETLSLTCSVSGVSILGSYWGWIRQPPGTGLQWIGYIYFSENTNYNPSLQSRVTMSLDTSKNLLSLKLSSVTAADTAVYYCARGGGYLETGPFDSWGQGTLVTVSS
VL: B1 VL with S28G, M30V, L32S, R44K, T58N, T81S, I99T
With B5, the 50% inhibitory concentration (IC50) was 0.12 µg/mL with SARS-CoV-2 Delta; 0.037 µg/mL in the test with Bat CoV WIV-1; 0.112 µg/mL in the test with SARS-CoV-2 Delta Plus; 0.082 µg/mL in the test with SARS-CoV-2 Gamma; 0.073 µg/mL with SARS-CoV-1; 0.031 µg/mL in the test with Bat CoV LYRa11.

B6: Antibody 13 (SS6V13-F1) (antibody, V domains shown)
VH: B5 VH
VL: B1 VL with S28G, M30V, L32S, R44K, T58N, T81S, I99T
For B6, the IC50 with SARS-COV-2 B.1.351 RBD stood at 0.087 µg/mL.
